# According to the nanobody polyreactivity screen of Harvey et al. (2022):
# Assay: yeast display, Sf9 membrane polyspecificity reagent, FACS + sequencing; frameworks hold sequencing errors
# Summary of the method: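 Using colony PCR, genes from sorted yeast display clones were amplified, then sequenced on MiSeq at 2 × 250 and filtered by CDR length. The clones had been stained with 10% biotinylated, detergent-solubilized Sf9 membrane reagent for 1 hour at 4 °C and sorted by FACS into low and high (top ~1%) gates on anti-HA and streptavidin fluorescence. Polyreactivity labels come from the gate of origin.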
row,Sequence,polyreactivity (PSR sort gate)
1,QVQLQESGGGLVQAGGSLRLSCAASGNIVDADIMGWYRQAPGKERELVASITDGGSTNYADCVKGRFTISRDNAKNTVYLKMNSLKPEDTAVYYCAAIAYPDIPTYFDYDSEYFYWGQGTQVTVSS,low polyreactivity
2,QVQLVESGGGLVQAGGSLRLSCAASGNIFADYVMGWYRQAPGKERELVAAIDKSGGRTYYADSVKGRFTISRDNAKNTVYLQMNSLKPEDTAVYYCSAYDRYRRMDYWGQGTQVTVSS,high polyreactivity
3,QVQLVESGGGLVQAGGSLRLSCAASGRTFDGNTMGWYRQAPGKERELVAAITKRGGSTYYADSVKGRFTFSRDNAKNTVYLQMNSLKPEDTAVYYCAKGQSYSTRLSPYYYWGQGTQVTVSS,high polyreactivity
4,QVQLVESGGGLVQAGGSLRLSCAASGRIFRVYAMGWYRQEPGKERELVAGISFRGASTYYADSVKGRFTISRDNAKNTVYLQMNSLKPEDTAVYYCAAALPVQYRDMYSWGQGTQVTVSS,high polyreactivity
5,QVQLVESGGGFVQAGGSLRLSCAACGITFNPNAMGWYRQAPGKERELVAAITANGGNTYYADSVKGRFTISRDNAKNTVYLQMNSLKPEDTAVYYCARRTRRSAGYGEYYYWGQGTQVTVSS,high polyreactivity
6,QVQLVESGGGLVQAGGSLRLSCAASGFIFDAYAMGWYRQAPGKERELVAAIDSGGSTDYADSVKGRFTISRDNAKNTVYLQMNSLKPEDTAVYYCNAERAYLWWYNFDYWGQGTQVTVSS,low polyreactivity
7,QVQLVESGGGLDQAGGSLRLSCAASGRIFLVYVMGWYRQAPGKERELVAAISASDGSTYYADSVKGRFTISRDNANNTVYLQMNSLKPEDTAVDYCAEWGYSLDSNSYRELNYWGQGTQVNVSS,low polyreactivity
8,QVQLVESGGGLVQAGGSLRLSCAASGRTFSYYAMGWYRQAPGKERELVAAITSSGGRTTYADSVKGRFTISRDNAKNTVYLQMNSLKPEDTAVYYCAARHTYQGPGTYPMYYWGQGTQVTVSS,high polyreactivity
9,QVQLVESGGGLVQAGGSLRLSCAASGRTFAFNAMGWYRQAPGKERELVATISWSGGSTYYADSVKGRFTISRDNAKNTVYLQMNSLKPEDTAVYYCAKVVRGSNDYDYWGQGTQVTVSS,high polyreactivity
10,QVQLVESGGGLVQAGGSLRLSCAASGNTFSYNAMGWYRQAPGKEKELVAGITWSGGSTYYADSVKGRFTISRDNAKNTVYLQMNSLKPEDTAVYYCAKGYGSGVVRSRWSKYGYWGQGTQVTVSS,high polyreactivity
11,QVQLVESGGGLVQAGGSLRLSCAASGFTFGYYTMGWYRQAPGKERELVAAISWRGGRTYYADSVKGRFTISRDNAKNTVYLQMNSLKPEDTAVYYCAAEYTYGWTYRPFDYWGQGTQVTVSS,high polyreactivity
12,QVQLVESGGGLVQAGGSLRLSCAASGFNFDENAMGWYRQAPGKEREFYAAISISGSSTYADSVKGRFTISRDNAKNTVYLQMNCLKPEDTAVYFCAASYTTEYTGDGHSGVGDGDYWGQGTQVTVSS,low polyreactivity
13,QVQLVESCGGLVQAGGSLRLSCAASGSTFRFYAMGWYRQAPGKERELVAAINGSGGSTYYADSVKGRFTISRDNAKNTVYLQMNSLKPEDTAVYYCAVLYRYGYDYWGQGTQVTVSW,low polyreactivity
14,QVQLVESGGGLVQAGGSLRLSCAASGRISVFYTRGWYRQAPGKERELVAVIRTSGGRTNYADSVKGRFTISRDNAKNTVYLQMNSLKPEDTAVYYCAARVVRYGYKYYYWGQGTQVTVSS,low polyreactivity
15,QVQLVDSGGGLVQAGGSLRLSCAASGFILSRYTMGWYRQAPGKERELVATISSGGRTYYADSVKGRFTISRDNAKNTVYLQMNSLKPEDTAVYYCAAAYTYWRISGNRYLYDYWGQGTQVTVSS,high polyreactivity
16,QVQLVESGGGLVQAGGSLRLSCAASGLTFSDYAMGWYRQAPGKEREFVAALTRNGGSTRYADSVKGRFTISRDNAKNTVYLQMNSLKPEDTAVYYCNADGWGDRFWSNFRFDYWGQGTQVTVSS,low polyreactivity
17,QVQLVESGGGLVQAGGSLRLSCAASGRIYGKYAMGWSRQAPGKERELVASISYSGGSTYYADSVKGRFTISRDNAKNTVYLHMISLKPEDTAVYYCAARKWRYGRYVYWGQGTQVTVSS,high polyreactivity
18,QVQLVESGGGLVQAGGSLRLSCASSGSTFYPNAMGWYRQAPGKERELVAAISRSGGSTYYADSVKGRFTISRDNAKNTVYLQMNSLKPEDTGVYYCAADGRSPSRYDYWGQGTQVTVSS,low polyreactivity
19,QVQNVESGRGLVQAGGSLRISCAASGDYAMGWSIQAPGTERELVAAISRRGGSTYYADSVKGRFTISRDNAKNTVYLQMNSLKQDDTAVYSCAADYSSRNRGNRYRLDYWGQGTQVTVSS,high polyreactivity
20,QVQLVESGGCLVQAGGSLRLSCAASGSTFNWNAMGWYRQAPGKERELVAAITSSGARTRYADSVKGRFTISRDNAKNTVYLQMNSLKPEDTAVYYCAAYVYISPSGYYYWGLGTQVTVSS,low polyreactivity
21,QVQLVESGGGLVQAGGSLRLSCAASGLIFSWYDMGWYRQAPGKERELVDAITTDGDDTYYADSVKGRFTISRDNAKNTVYLQMKSLKPEDTAVYYCDAVSEVAIRYPDRDYDSWGQGTQVTVSS,low polyreactivity
22,QVQLVESGGGLVQAGGSLRLSCAASGSIFEVYAMGWYRQAPVKERELVAAIDYSDGTTYYADSVKGRFTISRDNAKNTVYFQMNSLKPEDTAVYYCAADFPGQHYDYWGQGTQVTVSS,low polyreactivity

row,Sequence,polyreactivity (PSR sort gate)
1,QVQLVESGGGLVQAGGSLRLSCAASGYIFGIYAMGWYRQAPGKERELVAAISTSGGSKYYADSVKGRFTISRDTAKNTVYLQMNSLKPEDTAVYYCAASRPSPRPRYGYWGQGTQVTVSS,high polyreactivity
2,QVQLVESGGGLVQAGGSLRLSCAASGRTFSYYAMGWYRQAPGKERELVASINWSGGSTYYADSVKGRFTISRDNAKNTVYLQMNSLKPEDTAVYYCAADSWPFGYYYWGQGTQVTVSS,high polyreactivity
3,QVQLVESVGGLVQAGGSLRLSCAASGSTFKGYYMGWYRQAPGKERELVAAIDSGGSTYYADSVKGRFTISRDNAKNTVYLQMNSLNPVDTAVYYCAATGQDTYGLDVVDEYDYWGQGTKVTVSS,low polyreactivity
4,QVQLVESGGGLVQAGGSLRLSCAASGSTFDRYALGWYRQAPGKERELVAAITRGGSTYYADSVKGRFTISRDNAKNTVYLQLNSLKPDDTAVYYCAAAHWWVRVRGARYSYWGHGTQVTVSS,high polyreactivity
5,QVQLVESGGGLVQAGGSLRLSCAASGRIFGGYVMGWYRQAPGKERELVAAISKRGDSTYYADSVKGRFTISRDNAKHTVYLQMNSLKPEDTAVYYCAAVRRGDRGTDMDYWGQGTQVTVSS,high polyreactivity
6,QVQLVESGGGLVQAGGSLRLSCAASGSTFWVYAMGWYRQAPGKERELVATISRGGSTNYADSVKGRFTISRDNAKNTVYLQMNSLKPEDTAVYYCAAPRFYGYGYEYCGQGTQVTVSS,low polyreactivity
7,QVQLVESGGGLVQAGGSLRLSCAASGFTFIRSAMGWYRQAPGKGRELVAAITVSGTRTYYADSVKGRFTISRDNAKNTVYLQMNSLKPEDTAVYYCNARDVYTGYGMGYWGQGTQVTVSS,high polyreactivity
8,QVQLVESGGGLVQAGGSLRLSCAASGFISDWYAMGWYRQAPGTERELVATIDWIGGSTYADSVKGRFTISRDNAKNTVYLQMNSLKPEDTAVYYCAADSYFIAWYGAHYAYDYWGQGTQVTVSS,low polyreactivity
9,QVQLVESGGGLVQAGGSLRLRCAASGIIFTDYAMGWYRQAPGKERELVAAISSGGGSTYYAHSVKGRFTISRDNAKNTVYFLMNSLKPDVTAVYYCAAEGYLISGAGDYLYDYYWGQGTQVTVSS,high polyreactivity
10,QVQLVESGGGLVQAGGSLRLSCAASGSTFYSYAMGWSRQAPGKERELVAAITRGGRTYYADSVKGRFTISRDNAKNTVYLQMNSLKPEDTAVYYCNVVTKFTGRGYDYWGQGTQVTVSS,high polyreactivity
11,QVQLVESGGGLVQAGGSLRLSCAAYGSIFWYYAMGWYRQAHGKERELVAAISASGSSTYYADSVKGRLTISRDNAKNPVYLQMNSLNPEDTAVYYCAGTYILYNDWLYHYFPEEYDSWGQGTQVTVSS,low polyreactivity
12,QVHHVETGGGLDQAGGTLRLSCAASGRTFCTNAMGWSRQAPGKEWELVAAISSSGGSTYYADSVKGRFTISRDNAKNTVYLQMNSLKPEDTAVYYCAKGWHRGVGFCYWGQGTQVTVSS,high polyreactivity
13,QVQLVESGGGLVQAGGSLRLSCAASGSTYYTYAMGWYRQAPGKERELVAAIRGRGGRTYYADSVKGRFTISRDNAKNTVYLQMNSLKPEDTAVYYCNADGYAYYRATTRFDYWGQGTQVTVSS,high polyreactivity
14,QVQLVESGGGLVQAGGSLRLSCAASGRTLPANGMGWYRQAPGKQREFVAAINWRGGITYYADSVKGRFTISRDNSKNTVYLQMNSLNPEDTAVYYCARLRYFLLNGSLRYGTSDRDYWGQGTQVTVSS,high polyreactivity
15,QVQLVESGGGLVQAGGSLRLSCAASGSTIDGYAKGWYTQAPGKEREFVAAISFSSASTYYADSVKGRFTISSDNAKNTFYLQMNSLIPEDTAVYDCAASYKGLWHGDYDYWGQGTQVTVSS,low polyreactivity
16,QVQLVESGGGLVQAGGSLRLSCAASGSIFTVNAMGWYRQAPGKERELVAAITFGGGRTYYADSVKGRFTISRDNAKNTVYLQMNSLKPEDTSVYYCAVSRKGLGSVEYWGQGTQVTVSS,low polyreactivity
17,QVQLVESGGGLVQAGGSLRLSCAASGFTFSWNTMGWYRQAPGKERELVATISGSGGRTYYADSVKGRFTISRDKAKNTVYLQLNSLKPEDTAVYYCAKRRASRYYWGQGTQVTVSS,high polyreactivity
18,QVQLVESGGGLVQAGGSLRLSCAASGFIFGVYAMGWYRQAPGKERELVAAITSSGTSTYYADSVKGRFTISRDNAKNTVYLQMNSLKPEDTAVYYCNKSGYIYHRKLWTPYYYWGQGTQGTVSS,low polyreactivity
19,QVQLVESGGGLVQAGGSLRLSCAASGSIFTRNAMGWYRQAPGKERELVATIRKNGASTTYADSVKGRFTISRDNAKNTVYLQMNSLKQEDTAVYYCARDHHTKYNYWGQGTQVTVSS,low polyreactivity
20,QVQLVESGGGLVQAGGSLRLSCAASGSTFGDNAMGWYRQAPGKERELVATITSGGNTNYADSVKGRFTISRDNAKNTVYLQMNSLKPEDTAGYYCNTDFRPAGTTGTTTARYEYWGQGTQVTLSS,low polyreactivity
21,QVQLVESGGGLVQAGGSLRLSCAASGLTFEYYTMGWYIQAPGKERELVAAITSSGGSTYYADSVKGRFTISRDNAKNTVYLQMNSLKPVDTAVYYCAAYQIYQYDGTYDYWGQGTQVTVSS,low polyreactivity
